Data: patent US20170210813A1 (Regeneron, published 2017)

T1: human PDGFRb.mFc (human)
T1 construct: Soluble dimeric construct with mouse Fc; also called hPDGFRb.mFc; soluble human PDGFR-beta.mFc
T1 chain: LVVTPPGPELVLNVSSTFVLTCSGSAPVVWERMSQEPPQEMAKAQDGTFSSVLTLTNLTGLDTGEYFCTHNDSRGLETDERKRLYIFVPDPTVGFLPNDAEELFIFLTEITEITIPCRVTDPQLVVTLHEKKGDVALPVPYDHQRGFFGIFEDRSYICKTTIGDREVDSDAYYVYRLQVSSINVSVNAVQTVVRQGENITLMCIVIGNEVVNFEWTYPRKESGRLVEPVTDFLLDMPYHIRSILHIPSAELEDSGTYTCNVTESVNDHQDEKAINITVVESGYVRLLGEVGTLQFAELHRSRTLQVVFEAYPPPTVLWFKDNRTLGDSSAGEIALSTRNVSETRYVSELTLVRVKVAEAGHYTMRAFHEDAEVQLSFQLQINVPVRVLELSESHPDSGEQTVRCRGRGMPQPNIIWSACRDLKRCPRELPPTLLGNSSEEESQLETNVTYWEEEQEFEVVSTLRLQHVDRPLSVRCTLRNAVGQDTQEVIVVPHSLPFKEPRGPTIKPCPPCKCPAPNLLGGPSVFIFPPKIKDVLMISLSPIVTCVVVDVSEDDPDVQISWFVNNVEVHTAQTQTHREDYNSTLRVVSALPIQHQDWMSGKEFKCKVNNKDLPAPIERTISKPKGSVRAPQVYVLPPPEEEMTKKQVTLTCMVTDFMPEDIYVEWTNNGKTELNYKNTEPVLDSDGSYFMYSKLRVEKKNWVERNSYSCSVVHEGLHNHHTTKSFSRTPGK

T2: Macaca fascicularis PDGFRb.mmh (Macaca fascicularis)
T2 construct: Soluble monomeric construct; also called mfPDGFRb.mmh
T2 chain: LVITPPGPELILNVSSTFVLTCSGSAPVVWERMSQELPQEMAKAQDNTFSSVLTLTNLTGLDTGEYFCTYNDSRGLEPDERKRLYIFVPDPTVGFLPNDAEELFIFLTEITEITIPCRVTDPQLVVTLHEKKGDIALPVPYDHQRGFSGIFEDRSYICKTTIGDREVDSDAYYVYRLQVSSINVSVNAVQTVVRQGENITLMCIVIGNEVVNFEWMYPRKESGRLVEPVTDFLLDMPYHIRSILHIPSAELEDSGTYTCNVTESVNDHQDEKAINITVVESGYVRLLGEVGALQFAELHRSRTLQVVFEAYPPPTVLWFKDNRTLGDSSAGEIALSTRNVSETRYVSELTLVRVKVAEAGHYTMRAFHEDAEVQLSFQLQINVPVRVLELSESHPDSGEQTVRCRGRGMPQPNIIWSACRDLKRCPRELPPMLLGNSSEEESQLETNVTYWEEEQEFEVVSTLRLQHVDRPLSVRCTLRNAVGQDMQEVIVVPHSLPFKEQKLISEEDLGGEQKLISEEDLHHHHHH


Legend:
hPDGFRb.mmh [1] = molecular target: T3, hPDGFRb.mmh (human, UniProt P09619 33-531); assay: blocking ELISA, biot-hPDGFRb.mmh to coated PDGF-BB
T3 construct: Soluble monomeric construct; also called soluble human PDGFR-beta.mmh
T3 sequence (P09619 other isoform, or with tags, fused parts or gaps): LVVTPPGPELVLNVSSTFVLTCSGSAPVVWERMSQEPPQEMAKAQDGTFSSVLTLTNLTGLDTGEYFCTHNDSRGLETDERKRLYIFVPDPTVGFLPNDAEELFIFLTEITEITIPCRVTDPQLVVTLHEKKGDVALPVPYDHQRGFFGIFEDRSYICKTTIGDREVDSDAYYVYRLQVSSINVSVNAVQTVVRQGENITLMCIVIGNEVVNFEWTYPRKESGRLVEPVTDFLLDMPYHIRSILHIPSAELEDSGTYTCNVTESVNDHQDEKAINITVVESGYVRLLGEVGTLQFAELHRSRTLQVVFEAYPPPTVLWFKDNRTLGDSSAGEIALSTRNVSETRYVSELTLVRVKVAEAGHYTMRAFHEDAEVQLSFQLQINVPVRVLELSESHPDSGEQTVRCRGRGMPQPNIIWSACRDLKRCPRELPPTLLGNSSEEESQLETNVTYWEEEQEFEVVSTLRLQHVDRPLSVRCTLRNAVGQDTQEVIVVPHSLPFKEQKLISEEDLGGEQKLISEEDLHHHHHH
Method: The equilibrated PDGFR-beta/antibody solutions were added to ligand-coated plates, allowed to incubate for 1 hr, and washed. Levels of bound biot-hPDGFR-beta.mmh were detected using HRP conjugated streptavidin. Data were analyzed using Prism software and IC₅₀ values were calculated as the amount of antibody required to achieve 50% reduction of hPDGFR-beta-mmh bound to ligand. Maximum blocking values were also calculated and reflect the ability of the antibody to block relative to baseline. The absorbance measured at the constant amount of 250 pM biot-hPDGFR-beta-mmh on the dose curve is defined as 0% blocking and the absorbance with no added PDGFR-beta is defined as 100%. The absorbance of the wells containing the highest antibody concentration determined the maximum blocking percent.

[2] = molecular target: full length human PDGFR-beta on HEK293 cells (human, UniProt P09619 33-1106); assay: cell-based or functional assay
Sequence of full length human PDGFR-beta on HEK293 cells (P09619 33-1106 limits assumed): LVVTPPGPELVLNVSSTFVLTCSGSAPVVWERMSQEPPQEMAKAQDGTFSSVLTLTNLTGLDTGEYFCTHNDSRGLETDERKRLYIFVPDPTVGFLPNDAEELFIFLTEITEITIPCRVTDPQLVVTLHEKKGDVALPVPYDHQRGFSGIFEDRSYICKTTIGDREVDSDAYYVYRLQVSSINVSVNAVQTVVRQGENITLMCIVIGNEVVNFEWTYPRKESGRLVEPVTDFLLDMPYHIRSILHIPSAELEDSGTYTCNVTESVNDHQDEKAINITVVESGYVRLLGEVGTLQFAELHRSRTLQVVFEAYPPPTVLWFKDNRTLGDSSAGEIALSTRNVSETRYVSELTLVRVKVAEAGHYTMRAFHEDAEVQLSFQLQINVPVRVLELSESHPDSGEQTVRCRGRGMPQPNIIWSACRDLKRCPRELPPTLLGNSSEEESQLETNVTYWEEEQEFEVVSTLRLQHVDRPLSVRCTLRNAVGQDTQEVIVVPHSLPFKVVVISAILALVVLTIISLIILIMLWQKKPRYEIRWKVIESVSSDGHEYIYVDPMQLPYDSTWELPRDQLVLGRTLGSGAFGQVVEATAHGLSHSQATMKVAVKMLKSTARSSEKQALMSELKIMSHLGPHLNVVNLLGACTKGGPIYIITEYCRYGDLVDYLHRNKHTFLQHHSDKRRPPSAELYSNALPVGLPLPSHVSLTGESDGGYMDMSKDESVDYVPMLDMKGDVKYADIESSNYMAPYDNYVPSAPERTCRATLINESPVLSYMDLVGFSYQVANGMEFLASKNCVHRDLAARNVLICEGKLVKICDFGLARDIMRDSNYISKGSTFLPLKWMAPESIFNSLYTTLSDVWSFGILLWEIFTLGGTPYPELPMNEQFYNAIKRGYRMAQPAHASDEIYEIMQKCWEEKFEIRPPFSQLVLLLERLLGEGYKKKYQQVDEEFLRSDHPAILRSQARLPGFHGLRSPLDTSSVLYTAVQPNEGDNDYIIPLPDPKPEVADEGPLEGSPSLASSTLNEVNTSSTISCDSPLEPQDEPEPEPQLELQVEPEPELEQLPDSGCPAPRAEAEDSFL

hPDGFRb.mmh [3] = molecular target: T3, hPDGFRb.mmh; assay: SPR, mAb captured, 37 C
Method: (§1) Antibodies, expressed as either mouse Fc (prefix H1M; H2M) or human Fc (prefix H4H), were captured on their respective anti-Fc sensor surfaces (Mab capture format). […] Kinetic association (kₐ) and dissociation (kd) rate constants were determined by processing and fitting the data to a 1:1 binding model using Scrubber 2.0 curve fitting software.

human PDGFRb.mFc = molecular target: T1, human PDGFRb.mFc; assay: SPR, mAb captured, 25 C
Method: as §1

[4] = molecular target: T2, Macaca fascicularis PDGFRb.mmh; assay: SPR, mAb captured, 25 C
Method: as §1

hPDGFRb.mmh [5] = molecular target: T3, hPDGFRb.mmh; assay: SPR, mAb captured, 25 C
Method: as §1

Binder | % Maximum Blocking (hPDGFRb.mmh [1]) [%] | IC50 (hPDGFRb.mmh [1]) [nM] | IC50, blocking PDGF-BB (250 pM) activation, SRE-luciferase [2] [M] | IC50, blocking PDGF-DD (400 pM) activation, SRE-luciferase [2] [M] | Kd (hPDGFRb.mmh [3]) [nM] | koff (hPDGFRb.mmh [3]) [s⁻¹] | kon (hPDGFRb.mmh [3]) [M⁻¹ s⁻¹] | t1/2 (hPDGFRb.mmh [3]) [min] | Kd (human PDGFRb.mFc) [nM] | koff (human PDGFRb.mFc) [s⁻¹] | kon (human PDGFRb.mFc) [M⁻¹ s⁻¹] | t1/2 (human PDGFRb.mFc) [min] | Kd [4] [nM] | koff [4] [s⁻¹] | kon [4] [M⁻¹ s⁻¹] | t1/2 [4] [min] | Kd (hPDGFRb.mmh [5]) [nM] | koff (hPDGFRb.mmh [5]) [s⁻¹] | kon (hPDGFRb.mmh [5]) [M⁻¹ s⁻¹] | t1/2 (hPDGFRb.mmh [5]) [min]
H1M3374N (antibody, V domains shown, mouse Fc format; also called H2M3374N) VH: QLQLQESGPGLVKPSETLSLTCTVSGGSITSSSYYWGWIRQPPGKGLEWIGSIYYRGSTNYNPSLKSRVTISVDSSKNQFYLKVSSVTAVDTAVYYCARQNGAARPSWFDPWGQGTLVTVSS VL: EIVLTQSPDTISLSPGERATLSCRASQSISSIYLAWYQQKPGQAPRLLIYGASSRVTGIPDRFSVSGSGTDFTLTISRLEPEDFAVYYCQHYGISPFTFGPGTKVDIR | 88 | 0.077 | 3.1e-10 | 2.1e-10 | 1.71 | 0.00079 | 463000 | 15 | 0.108 | 0.000107 | 996000 | 108 | 2.7 | 0.000371 | 137000 | 31 | 1.99 | 0.000331 | 167000 | 35
H2M3373N (antibody, V domains shown, mouse Fc (H2M prefix; isotype not spelled out)) VH: EVQLRDSGGGLVQPGGSLRLSCVASGFTFSSYWMSWVRQAPGKGLEWVVNINRDGSEKYYVDSVKGRFIISRDNTKNSLYLQMESLRAEDTAVYYCARDPPYHLYGMDVWGQGTTVTVSS VL: DIQMTQSPSSLSASVGDRVTITCRTSQGIRVDLAWYQQKPGKAPERLIYAASSLQSGVPSRFSGGGSGTEFTLTVSSLQPEDFATYYCLQHHNFPYTFGQGTKLEIK | 80 | 0.9 | 7e-11 | 9.2e-11 | 29.8 | 0.0122 | 410000 | 0.9 | 0.507 | 0.00024 | 473000 | 48 | 18.3 | 0.00238 | 130000 | 5 | 12.4 | 0.00235 | 189000 | 5
